Source: IntAct's records for PubMed 19229295

B1: Growth/differentiation factor 5 (Homo sapiens), P43026 (parent)
chain: MRLPKLLTFLLWYLAWLDLEFICTVLGAPDLGQRPQGTRPGLAKAEAKERPPLARNVFRPGGHSYGGGATNANARAKGGTGQTGGLTQPKKDEPKKLPPRPGGPEPKPGHPPQTRQATARTVTPKGQLPGGKAPPKAGSVPSSFLLKKAREPGPPREPKEPFRPPPITPHEYMLSLYRTLSDADRKGGNSSVKLEAGLANTITSFIDKGQDDRGPVVRKQRYVFDISALEKDGLLGAELRILRKKPSDTAKPAAPGGGRAAQLKLSSCPSGRQPAALLDVRSVPGLDGSGWEVFDIWKLFRNFKNSAQLCLELEAWERGRAVDLRGLGFDRAARQVHEKALFLVFGRTKKRDLFFNEIKARSGQDDKTVYEYLFSQRRKRRAPLATRQGKRPSKNLKARCSRKALHVNFKDMGWDDWIIAPLEYEAFHCEGLCEFPLRSHLEPTNHAVIQTLMNSMDPESTPPTCCVPTRLSPISILFIDSANNVVYKQYEDMVVESCGCR

Variants of: B1
Details: with bmr1b_human BMPR1B

MRLPKLLTFLLWYLAWLDLEFICTVLGAPDLGQRPQGTRPGLAKAEAKERPPLARNVFRPGGHSYGGGATNANARAKGGTGQTGGLTQPKKDEPKKLPPRPGGPEPKPGHPPQTRQATARTVTPKGQLPGGKAPPKAGSVPSSFLLKKAREPGPPREPKEPFRPPPITPHEYMLSLYRTLSDADRKGGNSSVKLEAGLANTITSFIDKGQDDRGPVVRKQRYVFDISALEKDGLLGAELRILRKKPSDTAKPAAPGGGRAAQLKLSSCPSGRQPAALLDVRSVPGLDGSGWEVFDIWKLFRNFKNSAQLCLELEAWERGRAVDLRGLGFDRAARQVHEKALFLVFGRTKKRDLFFNEIKARSGQDDKTVYEYLFSQRRKRRAPLATRQGKRPSKNLKARCSRKALHVNFKDMGWDDWIIAPLEYEAFHCEGLCEFPLLSHLEPTNHAVIQTLMNSMDPESTPPTCCVPTRLSPISILFIDSANNVVYKQYEDMVVESCGCR [R438L] was tested. Which “effect of a mutation on the interaction” value did it give?
Its value is “increasing interaction”.

Variants of: B1
Details: with bmpr2_human BMPR2, Q13873
bmpr2_human BMPR2, Q13873, sequence (Q13873 whole entry): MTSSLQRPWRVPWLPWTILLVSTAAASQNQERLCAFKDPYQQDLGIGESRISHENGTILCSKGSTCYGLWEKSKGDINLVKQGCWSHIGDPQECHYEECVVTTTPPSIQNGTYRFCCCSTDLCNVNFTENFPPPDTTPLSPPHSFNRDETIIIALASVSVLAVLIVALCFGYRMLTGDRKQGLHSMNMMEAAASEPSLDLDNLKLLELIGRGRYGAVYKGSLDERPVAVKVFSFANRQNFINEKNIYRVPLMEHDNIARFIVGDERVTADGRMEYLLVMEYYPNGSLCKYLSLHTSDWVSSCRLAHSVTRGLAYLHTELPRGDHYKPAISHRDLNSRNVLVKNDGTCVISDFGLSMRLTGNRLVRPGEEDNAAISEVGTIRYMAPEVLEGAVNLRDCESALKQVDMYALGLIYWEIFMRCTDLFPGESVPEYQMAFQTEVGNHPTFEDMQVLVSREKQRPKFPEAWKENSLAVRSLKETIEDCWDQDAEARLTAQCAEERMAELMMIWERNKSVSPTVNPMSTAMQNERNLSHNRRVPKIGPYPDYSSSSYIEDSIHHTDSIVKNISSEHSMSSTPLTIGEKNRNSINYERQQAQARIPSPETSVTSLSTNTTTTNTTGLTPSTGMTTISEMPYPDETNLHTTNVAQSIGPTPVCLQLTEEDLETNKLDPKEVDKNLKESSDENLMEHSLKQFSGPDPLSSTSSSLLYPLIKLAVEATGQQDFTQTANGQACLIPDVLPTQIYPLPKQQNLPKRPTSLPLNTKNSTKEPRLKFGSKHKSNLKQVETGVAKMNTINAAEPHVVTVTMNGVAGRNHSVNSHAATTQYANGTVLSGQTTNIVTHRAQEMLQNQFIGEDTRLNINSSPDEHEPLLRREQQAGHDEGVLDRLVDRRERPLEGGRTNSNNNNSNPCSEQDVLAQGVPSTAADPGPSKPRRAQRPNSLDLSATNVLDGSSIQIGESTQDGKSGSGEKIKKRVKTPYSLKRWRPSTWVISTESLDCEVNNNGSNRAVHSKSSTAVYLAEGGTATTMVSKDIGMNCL

For MRLPKLLTFLLWYLAWLDLEFICTVLGAPDLGQRPQGTRPGLAKAEAKERPPLARNVFRPGGHSYGGGATNANARAKGGTGQTGGLTQPKKDEPKKLPPRPGGPEPKPGHPPQTRQATARTVTPKGQLPGGKAPPKAGSVPSSFLLKKAREPGPPREPKEPFRPPPITPHEYMLSLYRTLSDADRKGGNSSVKLEAGLANTITSFIDKGQDDRGPVVRKQRYVFDISALEKDGLLGAELRILRKKPSDTAKPAAPGGGRAAQLKLSSCPSGRQPAALLDVRSVPGLDGSGWEVFDIWKLFRNFKNSAQLCLELEAWERGRAVDLRGLGFDRAARQVHEKALFLVFGRTKKRDLFFNEIKARSGQDDKTVYEYLFSQRRKRRAPLATRQGKRPSKNLKARCSRKALHVNFKDMGWDDWIIAPLEYEAFHCEGLCEFPLLSHLEPTNHAVIQTLMNSMDPESTPPTCCVPTRLSPISILFIDSANNVVYKQYEDMVVESCGCR [R438L], which “effect of a mutation on the interaction” value is on record?
Its value is “increasing interaction”.

Variants of: B1
Details: with bmr1a_human BMPR1A

MRLPKLLTFLLWYLAWLDLEFICTVLGAPDLGQRPQGTRPGLAKAEAKERPPLARNVFRPGGHSYGGGATNANARAKGGTGQTGGLTQPKKDEPKKLPPRPGGPEPKPGHPPQTRQATARTVTPKGQLPGGKAPPKAGSVPSSFLLKKAREPGPPREPKEPFRPPPITPHEYMLSLYRTLSDADRKGGNSSVKLEAGLANTITSFIDKGQDDRGPVVRKQRYVFDISALEKDGLLGAELRILRKKPSDTAKPAAPGGGRAAQLKLSSCPSGRQPAALLDVRSVPGLDGSGWEVFDIWKLFRNFKNSAQLCLELEAWERGRAVDLRGLGFDRAARQVHEKALFLVFGRTKKRDLFFNEIKARSGQDDKTVYEYLFSQRRKRRAPLATRQGKRPSKNLKARCSRKALHVNFKDMGWDDWIIAPLEYEAFHCEGLCEFPLLSHLEPTNHAVIQTLMNSMDPESTPPTCCVPTRLSPISILFIDSANNVVYKQYEDMVVESCGCR [R438L] was tested. Which “effect of a mutation on the interaction” value did it give?
The value was “increasing interaction”.

Variants of: B1
Details: with bmpr2_human BMPR2, Q13873
Remark: another data set of the same source

With MRLPKLLTFLLWYLAWLDLEFICTVLGAPDLGQRPQGTRPGLAKAEAKERPPLARNVFRPGGHSYGGGATNANARAKGGTGQTGGLTQPKKDEPKKLPPRPGGPEPKPGHPPQTRQATARTVTPKGQLPGGKAPPKAGSVPSSFLLKKAREPGPPREPKEPFRPPPITPHEYMLSLYRTLSDADRKGGNSSVKLEAGLANTITSFIDKGQDDRGPVVRKQRYVFDISALEKDGLLGAELRILRKKPSDTAKPAAPGGGRAAQLKLSSCPSGRQPAALLDVRSVPGLDGSGWEVFDIWKLFRNFKNSAQLCLELEAWERGRAVDLRGLGFDRAARQVHEKALFLVFGRTKKRDLFFNEIKARSGQDDKTVYEYLFSQRRKRRAPLATRQGKRPSKNLKARCSRKALHVNFKDMGWDDWIIAPLEYEAFHCEGLCEFPLASHLEPTNHAVIQTLMNSMDPESTPPTCCVPTRLSPISILFIDSANNVVYKQYEDMVVESCGCR [R438A] as the variant, how does the “effect of a mutation on the interaction” value read?
Its value is “decreasing interaction”.

Variants of: B1
Details: with bmr1b_human BMPR1B
Remark: another data set of the same source

For MRLPKLLTFLLWYLAWLDLEFICTVLGAPDLGQRPQGTRPGLAKAEAKERPPLARNVFRPGGHSYGGGATNANARAKGGTGQTGGLTQPKKDEPKKLPPRPGGPEPKPGHPPQTRQATARTVTPKGQLPGGKAPPKAGSVPSSFLLKKAREPGPPREPKEPFRPPPITPHEYMLSLYRTLSDADRKGGNSSVKLEAGLANTITSFIDKGQDDRGPVVRKQRYVFDISALEKDGLLGAELRILRKKPSDTAKPAAPGGGRAAQLKLSSCPSGRQPAALLDVRSVPGLDGSGWEVFDIWKLFRNFKNSAQLCLELEAWERGRAVDLRGLGFDRAARQVHEKALFLVFGRTKKRDLFFNEIKARSGQDDKTVYEYLFSQRRKRRAPLATRQGKRPSKNLKARCSRKALHVNFKDMGWDDWIIAPLEYEAFHCEGLCEFPLRSHPEPTNHAVIQTLMNSMDPESTPPTCCVPTRLSPISILFIDSANNVVYKQYEDMVVESCGCR [L441P], which “effect of a mutation on the interaction” value is on record?
Its value is “decreasing interaction”.

Variants of: B1
Details: with bmpr2_human BMPR2, Q13873
Remark: another data set of the same source

MRLPKLLTFLLWYLAWLDLEFICTVLGAPDLGQRPQGTRPGLAKAEAKERPPLARNVFRPGGHSYGGGATNANARAKGGTGQTGGLTQPKKDEPKKLPPRPGGPEPKPGHPPQTRQATARTVTPKGQLPGGKAPPKAGSVPSSFLLKKAREPGPPREPKEPFRPPPITPHEYMLSLYRTLSDADRKGGNSSVKLEAGLANTITSFIDKGQDDRGPVVRKQRYVFDISALEKDGLLGAELRILRKKPSDTAKPAAPGGGRAAQLKLSSCPSGRQPAALLDVRSVPGLDGSGWEVFDIWKLFRNFKNSAQLCLELEAWERGRAVDLRGLGFDRAARQVHEKALFLVFGRTKKRDLFFNEIKARSGQDDKTVYEYLFSQRRKRRAPLATRQGKRPSKNLKARCSRKALHVNFKDMGWDDWIIAPLEYEAFHCEGLCEFPLRSHPEPTNHAVIQTLMNSMDPESTPPTCCVPTRLSPISILFIDSANNVVYKQYEDMVVESCGCR [L441P] was tested. Which “effect of a mutation on the interaction” value did it give?
The value was “increasing interaction”.

Variants of: B1
Details: with bmr1a_human BMPR1A
Remark: another data set of the same source

MRLPKLLTFLLWYLAWLDLEFICTVLGAPDLGQRPQGTRPGLAKAEAKERPPLARNVFRPGGHSYGGGATNANARAKGGTGQTGGLTQPKKDEPKKLPPRPGGPEPKPGHPPQTRQATARTVTPKGQLPGGKAPPKAGSVPSSFLLKKAREPGPPREPKEPFRPPPITPHEYMLSLYRTLSDADRKGGNSSVKLEAGLANTITSFIDKGQDDRGPVVRKQRYVFDISALEKDGLLGAELRILRKKPSDTAKPAAPGGGRAAQLKLSSCPSGRQPAALLDVRSVPGLDGSGWEVFDIWKLFRNFKNSAQLCLELEAWERGRAVDLRGLGFDRAARQVHEKALFLVFGRTKKRDLFFNEIKARSGQDDKTVYEYLFSQRRKRRAPLATRQGKRPSKNLKARCSRKALHVNFKDMGWDDWIIAPLEYEAFHCEGLCEFPLRSHPEPTNHAVIQTLMNSMDPESTPPTCCVPTRLSPISILFIDSANNVVYKQYEDMVVESCGCR [L441P] was tested. Which “effect of a mutation on the interaction” value did it give?
Its value is “disrupting interaction”.
